Key:
[1] = target: TLR2 on human monocytes (human) (UniProt O60603); assay: flow cytometry on monocytes of a patient's blood sample, 3 µg/mL PE-labeled control antibody
[2] = target: TLR2 on human monocytes (human) (UniProt O60603); assay: flow cytometry on monocytes, Sample 1, antibody at 1 µg/mL
[3] = target: TLR2 on human monocytes (human) (UniProt O60603); assay: flow cytometry on monocytes, Sample 1, antibody at 3 µg/mL
[4] = target: TLR2 on human monocytes (human) (UniProt O60603); assay: flow cytometry on monocytes, Sample 2, antibody at 1 µg/mL
[5] = target: TLR2 on human monocytes (human) (UniProt O60603); assay: flow cytometry on monocytes, Sample 2, antibody at 3 µg/mL
[6] = target: TLR2 on human monocytes (human) (UniProt O60603); assay: flow cytometry on monocytes, Sample 3, antibody at 1 µg/mL
[7] = target: TLR2 on human monocytes (human) (UniProt O60603); assay: flow cytometry on monocytes, Sample 3, antibody at 3 µg/mL
[8] = target: TLR2 on human monocytes (human) (UniProt O60603); assay: flow cytometry on monocytes, Sample 1, instrument setting FL534
[9] = target: TLR2 on human monocytes (human) (UniProt O60603); assay: flow cytometry on monocytes, Sample 1, instrument setting FL634
[10] = target: TLR2 on human monocytes (human) (UniProt O60603); assay: flow cytometry on monocytes, Sample 2, instrument setting FL534
[11] = target: TLR2 on human monocytes (human) (UniProt O60603); assay: flow cytometry on monocytes, Sample 2, instrument setting FL634
[12] = target: TLR2 on human monocytes (human) (UniProt O60603); assay: flow cytometry on monocytes, Sample 3, instrument setting FL534
[13] = target: TLR2 on human monocytes (human) (UniProt O60603); assay: flow cytometry on monocytes, Sample 3, instrument setting FL634
[14] = target: TLR2 on human monocytes (human) (UniProt O60603); assay: flow cytometry on monocytes of a patient's blood sample, 3 µg/mL PE-labeled antibody
[15] = target: TLR2 on human monocytes (human) (UniProt O60603); assay: flow cytometry on monocytes, MFI of anti-TLR2 antibody minus MFI of control antibody

Sequence of UniProt O60603 (O60603 21-784): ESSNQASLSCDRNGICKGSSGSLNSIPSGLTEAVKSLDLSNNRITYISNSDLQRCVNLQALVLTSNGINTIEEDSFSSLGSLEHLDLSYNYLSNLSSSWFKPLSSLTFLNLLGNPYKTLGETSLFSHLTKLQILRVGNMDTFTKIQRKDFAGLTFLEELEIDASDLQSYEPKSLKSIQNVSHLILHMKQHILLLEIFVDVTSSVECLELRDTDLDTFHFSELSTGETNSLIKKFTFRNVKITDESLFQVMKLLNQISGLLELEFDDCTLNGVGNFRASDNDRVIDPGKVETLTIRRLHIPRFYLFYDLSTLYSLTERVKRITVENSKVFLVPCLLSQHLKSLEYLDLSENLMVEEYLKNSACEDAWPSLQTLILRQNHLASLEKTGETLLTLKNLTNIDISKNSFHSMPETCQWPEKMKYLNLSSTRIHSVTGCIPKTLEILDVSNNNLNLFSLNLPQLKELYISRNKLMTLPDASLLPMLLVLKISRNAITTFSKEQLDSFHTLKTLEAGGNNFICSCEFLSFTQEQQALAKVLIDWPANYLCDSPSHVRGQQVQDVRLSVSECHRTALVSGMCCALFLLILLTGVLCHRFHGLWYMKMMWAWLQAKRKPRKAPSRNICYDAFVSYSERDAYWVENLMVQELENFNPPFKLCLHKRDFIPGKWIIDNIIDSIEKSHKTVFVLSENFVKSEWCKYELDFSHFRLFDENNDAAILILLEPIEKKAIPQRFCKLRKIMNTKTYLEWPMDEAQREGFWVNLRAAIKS

| MFI [1] [MFI] | Delta MFI [2] [MFI] | Delta MFI [3] [MFI] | Delta MFI [4] [MFI] | Delta MFI [5] [MFI] | Delta MFI [6] [MFI] | Delta MFI [7] [MFI] | Delta MFI [8] [MFI] | Delta MFI [9] [MFI] | Delta MFI [10] [MFI] | Delta MFI [11] [MFI] | Delta MFI [12] [MFI] | Delta MFI [13] [MFI] | MFI [14] [MFI] | Delta MFI [15] [MFI] | Substance |
| --- | --- | --- | --- | --- | --- | --- | --- | --- | --- | --- | --- | --- | --- | --- | --- |
| 11.7 | – | – | – | – | – | – | – | – | – | – | – | – | – | – | PE-labeled control (mouse IgG2a) antibody |
| – | 53.7 | 77.5 | 54.1 | 88 | 40.4 | 68.7 | 77.5 | 286 | 88 | 340 | 68.7 | 273 | 104 | 92.6 | PE-bound anti-TLR2 monoclonal antibody (clone name: T2.1, product of eBioscience) |
